Data from patent US20250270737A1, “Antibodies That Bind GLP1R” (Twist Bioscience Corporation, priority 2019, published 2025).
Like-named read-outs stand apart in the source and are kept apart here.

T1: mouse GLP1R (Mus musculus, UniProt O35659)
T1 sequence (O35659 22-463): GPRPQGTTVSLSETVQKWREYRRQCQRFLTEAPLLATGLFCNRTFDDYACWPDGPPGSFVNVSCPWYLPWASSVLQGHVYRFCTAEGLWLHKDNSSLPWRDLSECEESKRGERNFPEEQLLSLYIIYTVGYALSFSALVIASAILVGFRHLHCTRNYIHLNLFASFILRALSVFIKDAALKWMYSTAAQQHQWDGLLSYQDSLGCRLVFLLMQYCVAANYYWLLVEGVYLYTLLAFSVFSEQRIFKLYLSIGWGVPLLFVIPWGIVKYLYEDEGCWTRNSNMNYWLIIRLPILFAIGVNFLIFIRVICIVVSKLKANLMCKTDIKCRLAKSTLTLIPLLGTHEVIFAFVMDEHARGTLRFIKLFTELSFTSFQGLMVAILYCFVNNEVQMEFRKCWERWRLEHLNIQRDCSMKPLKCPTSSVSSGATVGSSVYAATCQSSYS

T2: GLP2R (Homo sapiens, UniProt O95838)
T2 sequence (O95838 1-553): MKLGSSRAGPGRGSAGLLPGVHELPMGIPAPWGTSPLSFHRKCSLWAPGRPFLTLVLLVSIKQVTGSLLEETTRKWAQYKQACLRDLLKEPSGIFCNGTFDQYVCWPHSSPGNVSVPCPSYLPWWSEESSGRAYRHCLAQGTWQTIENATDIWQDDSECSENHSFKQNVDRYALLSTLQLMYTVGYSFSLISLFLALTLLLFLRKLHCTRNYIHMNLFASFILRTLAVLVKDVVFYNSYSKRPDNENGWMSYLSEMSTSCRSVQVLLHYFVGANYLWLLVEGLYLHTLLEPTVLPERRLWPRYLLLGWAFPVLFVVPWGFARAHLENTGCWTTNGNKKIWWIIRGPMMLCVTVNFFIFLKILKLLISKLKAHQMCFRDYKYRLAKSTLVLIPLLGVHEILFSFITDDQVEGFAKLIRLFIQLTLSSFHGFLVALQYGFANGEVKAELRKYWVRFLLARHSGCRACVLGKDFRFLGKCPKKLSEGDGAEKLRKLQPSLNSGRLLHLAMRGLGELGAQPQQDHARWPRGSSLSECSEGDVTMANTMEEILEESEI


How the values were obtained:
[1] = target: T3, GLP1R (Homo sapiens, UniProt P43220); test: VHH-Fc FACS binding on CHO-GLP1R cells; settings: Sample E10.fcs/CHO-GLP1R
Procedure: A VHH library for GLP1R was developed similar to methods described in Example 14. Briefly, stable cell lines expressing GLP1R were generated, and target expression was confirmed by FACS. Cells expressing >80% of the target were then used for cell-based selections. Five rounds of cell-based selections were carried out against cells stably overexpressing the target of interest. 10^8 cells were used for each round of selection. Before selection on target expressing cells, phage from each round was first depleted on 10^8 CHO background cells. Stringency of selections was increased by increasing the number of washes in subsequent rounds of selections. The […] using trypsin, and the phage was amplified for the next round of panning. A total of 1000 clones from round 4 and round 5 are sequenced by NGS to identify unique clones for reformatting as VHH-Fc.
The data for variant GLP1R-43-77 is seen in FIGS. 22A-22B and Tables 23B-24.

[2] = system: CHO-parent; test: VHH-Fc FACS binding on CHO-parent cells; settings: Sample E10.fcs/CHO-parent
[3] = target: T1, mouse GLP1R; test: Binding on mouse GLP1R; settings: IgG at 100 nM (GLP1R-59-243 at 50 nM); data not shown
Procedure: (§1) Binding of GLP1R-3, GLP1R-59-242, and GLPTR-43-8 on mouse, macaca, and human GLP1R was determined. […] Binding of GLP1R-59-2, GLP1R-59-241, and GLPTR-59-243 on mouse, macaca, and human GLP1R was determined.

[4] = system: C57BL/6NHsd Mice; test: Glucose Tolerance Test (GTT) in wild-type mice; format: in vivo, mouse; settings: control mice exhibited a decrease; FIG. 25D
Procedure: 15 C57BL/6NHsd Mice were used and subjected to a Glucose Tolerance Test (GTT). The in vivo GTT test was performed on three groups of mice with 5 mice per group. […] Blood glucose measurements were recorded for each mouse at 15, 30, 60, 120, and 180 minutes after dextrose injection. […] A third group of mice were the control mice and were not treated. Data is seen for GLP1R-59-2 (agonist), GLP1R-3 (antagonist), and control in FIGS. 25A-25D.

[5] = target: T3, GLP1R
Procedure: All GLP1R scFv clones, as well as pGPCR-GLP1R-43 and pGPCR-GLP1R-44, were assayed for their potential effects on GLP1R signaling by performing cAMP assays (Eurofins DiscoverX Corporation). These assays involve CHO cells that were engineered to overexpress naturally Gαs-coupled wildtype GLP1R and were designed to detect changes in intracellular cAMP levels in response to agonist stimulation of the receptor. The technology involved in detecting cAMP levels was a no wash gain-of-signal competitive immunoassay based on Enzyme Fragment Complementation technology and produced a luminescent signal that was directly proportional to the amount of cAMP in the cells. Experiments were designed to determine agonist or allosteric activity of the IgGs.

[6] = target: T3, GLP1R; test: cAMP assay, allosteric/antagonist effects on Exendin-4 peptide induced cAMP activity (Example 10); format: cell-based
[7] = system: human pancreatic precursor cells expressing endogenous GLP1R; test: Binding to human pancreatic precursor cells expressing endogenous GLP1R
Procedure: as §1

[8] = system: macaca GLP1R; test: Binding on macaca GLP1R; settings: IgG at 100 nM (GLP1R-59-243 at 50 nM); data not shown
Procedure: as §1

[9] = target: T3, GLP1R; test: Binding on human GLP1R; settings: IgG at 100 nM (GLP1R-59-243 at 50 nM); data not shown
Procedure: as §1

[10] = target: T3, GLP1R; test: cAMP assay, allosteric effects on GLP1-7-36 peptide induced cAMP activity (Example 10); format: cell-based; settings: FIGS. 10B-10J
Procedure: Cell binding was determined for the GLP1R variants. […] GLP1R-3, GLP1R-8, GLP1R-26, GLP1R-56, GLP1R-58 and GLP1R-10 were then analyzed for allosteric effects on GLP1-7-36 peptide in a cAMP assay. FIGS. […] show graphs of the GLP1R variants on inhibition of GLP1-7-36 peptide induced cAMP activity.

[11] = target: T2, GLP2R; test: Specificity of GLP1R versus GLP2R binding; settings: data not shown
[12] = system: C57BL/6J DIO mice; test: Oral glucose tolerance test in mouse model of diet induced obesity; format: in vivo; settings: HFD, 10 mg/kg SC, 2 g/kg oral glucose 60 minutes later, FIGS. 24C-24D
Procedure: The objective of this study was to evaluate the acute effects of a chimeric antibody GLP1R agonist and antagonist on glycemic control in a mouse model of diet induced obesity in C57BL/6J DIO mice. The test articles are seen below in Table 25.
For each test article, 7 different test article groups were generated as summarized in the following Table 26 with 8 animals per group.
On Day 3 (all animals) and Day 1 (Group 1-7), a non-fasting blood glucose was determined by tail snip. Approximately 5-10 μL of blood was collected. The second drop of blood from the animal was placed on a blood glucose test strip and analyzed using a hand-held glucometer (Abbott Alpha Trak).
After a non-fasting blood glucose measurement was made on the day of the procedure, the animals were weighed, tails marked, and the animals placed in clean cages without food. The animals were fasted for 4 hours and a fasting blood glucose measurement was determined.
The oral glucose tolerance test (OGTT) was administered to each animal 60 minutes later. The animals were dosed via oral gavage with 2 g/kg glucose (10 mL/kg). Blood glucose was determined via tail snip with the second drop of blood from the animal placed on a hand-held glucometer (Abbott Alpha Trak) at the following times relative to the glucose dose: 0 (just prior to glucose dose), 15, 30, 60, 90, and 120 minutes. […]

[13] = Thermal ramp stability (Tm and Tagg), UNcle platform; format: physicochemical
Text: The GLP1R IgGs were characterized for thermal ramp stability (Tm and Tagg). The UNcle platform was used to characterize the IgGs and the data is seen in Table 21.

T3 sequence (P43220 24-463): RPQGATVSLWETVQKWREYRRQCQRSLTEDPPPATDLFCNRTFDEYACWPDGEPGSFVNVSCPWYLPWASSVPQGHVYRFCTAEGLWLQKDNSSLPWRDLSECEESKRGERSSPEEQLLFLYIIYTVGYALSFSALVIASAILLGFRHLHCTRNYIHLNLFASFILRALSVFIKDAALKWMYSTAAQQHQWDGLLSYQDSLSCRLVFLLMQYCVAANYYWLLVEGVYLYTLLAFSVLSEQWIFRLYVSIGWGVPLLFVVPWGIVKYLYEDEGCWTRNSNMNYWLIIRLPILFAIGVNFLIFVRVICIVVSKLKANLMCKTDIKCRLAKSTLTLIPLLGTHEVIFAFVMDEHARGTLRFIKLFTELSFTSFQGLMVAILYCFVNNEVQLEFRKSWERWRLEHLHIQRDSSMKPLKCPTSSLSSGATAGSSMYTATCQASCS

Median: RL1-A [1] | binding on mouse GLP1R [3] | EC50 ([5]; EC50 of GLP1 (7-36) cAMP response with GLP1R IgG (+100 nM)) [nM] | fold difference of EC50 ([5]; EC50 with 100 nM IgG versus no antibody (Table 23)) [fold] | inhibition of GLP1:GLP1R signaling ([5]; GLP1 (7-36) titration versus no antibody, FIG. 24A) | inhibition at higher concentrations ([5]; following stimulation with 0.05 nM GLP1 (7-36), FIG. 24B) | EC50 ([6]; EC50 of Exendin-4 induced cAMP in the presence of the GLP1R variant) [nM] | fold-diff ([6]; fold difference of Exendin-4 EC50 with variant versus Exendin-4 alone) | binding on macaca GLP1R [8] | binding on human GLP1R [9] | allosteric inhibition of GLP1-7-36 peptide induced cAMP activity [10] | specificity of GLP1R versus GLP2R binding [11] | Molecule | Median: RL1-A [2] | change of glucose in a 6 hour fast, pre-dosed animals [4] | binding to human pancreatic precursor cells expressing endogenous GLP1R [7] | glucose levels after glucose administration (OGTT) [12] | Average Tagg 266 [13] [°C] | Average Tm2 [13] [°C] | Average Tml [13] [°C]
23439 | – | – | – | – | – | – | – | – | – | – | – | GLP1R-43-77: GLP1R VHH Fc binder variant from the VHH library for GLP1R (protein, Fc) VHH: EVQLVESGGGLVQAGGSLRLSCAASGNTYSYKVMGWFRQAPGKEREFVGIIIRNGDTTYYADSVKGRFTISADNAKNTVYLQMNSLKPEDTAVYYCAASPKYMTAYERSYDWGQGTQVTVSS | 237 | – | – | – | – | – | –
– | found to bind | 1.31 | 2.2 | inhibits GLP1:GLP1R signaling | complete inhibition | 0.63 | 5.4 | found to bind | found to bind | allosteric inhibition | specific for GLP1R over GLP2R | GLP1R-3: GLP1R antagonist IgG, CDR-H3 SEQ ID NO 2279, heavy chain SEQ ID NO 2320 (antibody) heavy: QVQLVESGGGVVQPGRSLRLSCAASGFTFSSYGMHWVRQAPGKGLEWVSFISYDESNKYYADSVKGRFTISRDNSKNTLYLQMNSLRAEDTAVYYCAKHMSMQEGAVTGEGQAAKEFIAWLVKGRVRADLVGDAFDVWGQGTLVTVSSASTKGPSVFPLAPCSRSTSESTAALGCLVKDYFPEPVTVSWNSGALTSGVHTFPAVLQSSGLYSLSSVVTVPSSNFGTQTYTCNVDHKPSNTKVDKTVERKCCVECPPCPAPPVAGPSVFLFPPKPKDTLMISRTPEVTCVVVDVSHEDPEVQFNWYVDGVEVHNAKTKPREEQFNSTFRVVSVLTVVHQDWLNGKEYKCKVSNKGLPAPIEKTISKTKGQPREPQVYTLPPSREEMTKNQVSLTCLVKGFYPSDIAVEWESNGQPENNYKTTPPMLDSDGSFFLYSKLTVDKSRWQQGNVFSCSVMHEALHNHYTQKSLSLSPGK light: QSVLTQPPSVSAAPGQKVTISCSGSSSNIADNYVSWYQQLPGTAPKLLIYDNNKRPSGIPDRFSGSKSGTSATLGITGLQTGDEADYYCGTWDNYLGAGVFGGGTKLTVLGQPKAAPSVTLFPPSSEELQANKATLVCLISDFYPGAVTVAWKADSSPVKAGVETTTPSKQSNNKYAASSYLSLTPEQWKSHRSYSCQVTHEGSTVEKTVAPTECS | – | did not show decreased glucose | found to bound | sustained high glucose levels | 68.4 | 73.5 | 66.7
